The values below come from patent US20240252474A1, “METHODS AND COMPOSITIONS COMPRISING A CARDIO-TOLERATED HDAC INHIBITOR” (HUYABIO International, LLC, priority 2023, published 2024).

The nature of this data set: Phase 1b safety and tolerability of HBI-8000 combined with nivolumab (DLTs, TEAEs). Type of data set: in vivo. On the procedure:
The present example, was a Phase Ib/2 open-label dose finding study for HBI-8000 (also referred to in the art as “chidamide” or “tucidinostat” and also referred to herein as a compound of formula I) in combination with nivolumab in patients with advanced solid tumors, including melanoma, RCC (renal cell carcinoma), and NSCLC (non-small cell lung cancer). This study was conducted in accordance with Good Clinical Practice guidelines and the Declaration of Helsinki and with assurance/approval from the US Department of Health and Human Services; the protocol was approved by the institutional review boards or ethics committees of all participating sites. All patients provided written informed consent to participate before enrollment. […]
HBI-8000 at three dose levels (20 mg, 30 mg, and 40 mg) given orally twice a week (BIW) were evaluated. Doses were taken approximate 30 minutes after a meal. The starting dose (20 mg) was selected based on pharmacokinetic profiles established for monotherapy in Japanese patients with T-cell lymphoma.
The decision to escalate the dose was based on the conventional 3+3 design and observed incidences of dose-limiting toxicities (DLTs). Each treatment cycle was defined as 28 days. […] Subjects experiencing DLT within the first two weeks after having received 100% of assigned dose of HBI-8000 are also evaluable for DLT. Unacceptable toxicities were defined as grade 3 or higher non-hematologic and hematologic toxicities with clinical complications. Unacceptable toxicities observed over the first 28 days following HBI-8000 administration were considered as DLTs. […] HBI-8000 administration continued until disease progression or unacceptable toxicity was observed. The efficacy of the combination was further evaluated in an expanded cohort of selected patient populations at RP2D based on an objective response rate according to Response Evaluation Criteria in Solid Tumors (RECIST) version 1.1 criteria, progression-free survival, and duration of responses.
Safety evaluations included physical examinations, vital signs, ECGs, ECOG performance status, and laboratory tests.
Statistical analyses of safety, tolerability, and anti-tumor activity were primarily descriptive in nature. Toxicities were tabulated by type and grade. The safety population included all patients who received ≥1 dose of HBI-8000 and nivolumab. Continuous variables were summarized using descriptive statistics and categorical variables were summarized with number and percentage at each category. Pharmacokinetic parameters were derived using noncompartmental methods with Phoenix® WinNonlin® Version 6.4 (Certara, L. P., Princeton, NJ, USA).

The mark [1] stands for this setting: 20 mg HBI-8000 BIW + nivolumab, N = 3.
The mark [2] stands for this setting: 30 mg HBI-8000 BIW + nivolumab, N = 7.
The mark [3] stands for this setting: 40 mg HBI-8000 BIW + nivolumab, N = 7.

With “Nivolumab: fully human monoclonal antibody directed against PD-1 (marketed as OPDIVO) [reference compound]”, under setting [1], the “Diarrhoea, Related Nivo, Any G” value is 1 (33) n (%); the “SAE related to Nivolumab alone, number of subjects” value (“SAE related to Nivolumab alone” below) stood at 1 n; the “TEAE related to Nivolumab alone, number of subjects” value (“TEAE related to Nivolumab alone” for short) is given as 2 n; the “TEAE resulting in discontinuation of Nivo alone, number of subjects” value (shortened to “TEAE resulting in discontinuation”) amounted to 1 n. For the same substance, the “Weight decreased, Related Nivo, Any G” value under setting [1] is 1 (33) n (%). Under setting [2], the “Back pain, Related Nivo, Any G” value was 2 (29) n (%); the “Dyspnoea, Related Nivo, Any G” value is on record as 1 (14) n (%); the “Fall, Related Nivo, Any G” value is on record as 1 (14) n (%); the “Hypoxia, Related Nivo, Any G” value is reported as 1 (14) n (%). For the same substance, under setting [2], the “Lipase increased, Related Nivo, Any G” value is listed as 1 (14) n (%); the “SAE related to Nivolumab alone” value is 2 n; the “TEAE related to Nivolumab alone” value came out at 6 n; the “TEAE resulting in discontinuation” value worked out at 4 n. Also, under setting [3], the “Diarrhoea, Related Nivo, Any G” value is 1 (14) n (%); the “SAE related to Nivolumab alone” value is 1 n; the “TEAE related to Nivolumab alone” value stood at 2 n; the “TEAE resulting in discontinuation” value is on record as 2 n. Further, for the setting “Total, all dose levels, N = 17”, the “SAE related to Nivolumab alone” value is on record as 4 n; the “TEAE related to Nivolumab alone” value was 10 n; the “TEAE resulting in discontinuation” value stood at 7 n.
